From paper PMC3366936

Molecular target: OPTN Δ1-394 in pCMV-BD (mammalian two-hybrid fusion) (UniProt Q96CV9)
Assay: mammalian two-hybrid (luciferase reporter)
Set-up: unit not given here
Conditions: HEK293 cells; 48 h after transfection; n = 3; parent: est. 6.5; read off a plot

UniProt Q96CV9, sequence (Q96CV9 395-577, stated change not applied): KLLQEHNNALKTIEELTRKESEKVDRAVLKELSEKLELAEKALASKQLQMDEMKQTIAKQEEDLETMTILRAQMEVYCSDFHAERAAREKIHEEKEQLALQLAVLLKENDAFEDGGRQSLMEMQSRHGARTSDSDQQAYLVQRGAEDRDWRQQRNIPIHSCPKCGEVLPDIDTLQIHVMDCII

Substance	response
E3-14.7K wild type in pCMV-AD (mammalian two-hybrid fusion) E27D; R28Y; E29K; R30D; L31E	4.5
E3-14.7K wild type in pCMV-AD (mammalian two-hybrid fusion) H42D; Q43Y; C44K; K45D; R46E	0.1
E3-14.7K wild type in pCMV-AD (mammalian two-hybrid fusion) H102D; F103Y; P104K; Y105D; Q106E	11
E3-14.7K wild type in pCMV-AD (mammalian two-hybrid fusion) I12D; N13Y; T14K; E15D; Q16E	4.6
E3-14.7K wild type in pCMV-AD (mammalian two-hybrid fusion) L7D; E8Y; L9K; G11E	6
E3-14.7K wild type in pCMV-AD (mammalian two-hybrid fusion) M38Y; V39K; N40D; L41E	2.2
E3-14.7K wild type in pCMV-AD (mammalian two-hybrid fusion) M82D; V83Y; G84K; E85D; K86E	0.2
E3-14.7K wild type in pCMV-AD (mammalian two-hybrid fusion) P87D; I88Y; T89K; V90D; T91E	0.6
E3-14.7K wild type in pCMV-AD (mammalian two-hybrid fusion) R17D; L18Y; L19K; E20D; R21E	2.8
E3-14.7K wild type in pCMV-AD (mammalian two-hybrid fusion) R22D; K23Y; A24K; A25D; S26E	2.9
E3-14.7K wild type in pCMV-AD (mammalian two-hybrid fusion) T2D; E3Y; S4K; L5D; D6E	5.1
E3-14.7K wild type in pCMV-AD (mammalian two-hybrid fusion) T62D; T63Y; T64K; G65D; N66E	0.5
